# Test system: target antigen-expressing cell line
# Assay: Jurkat NFAT-GFP assay, coculture with target cell lines expressing the respective target antigen (summary Table 10A)
# Type: cell-based, human
# Design: key: The signs +/−, +, 2+ etc. after the name of the cell lines indicate the relative degree of positivity on the Jurkat-NFAT-GFP assay as measured by the % GFP positive cells; +: relative degree of positivity on the Jurkat-NFAT-GFP assay as measured by the % GFP positive cells; 2+: relative degree of positivity on the Jurkat-NFAT-GFP assay as measured by the % GFP positive cells
# Method in brief: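 Positivity is scored when SIR-expressing reporter Jurkat cells show more GFP-positive cells than parental controls after coculture with the antigen-bearing line. Effector-to-target ratio is about 1:2, coculture lasts roughly 4–18 hours, and GFP is quantified by FACS.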
Molecule,NFAT-GFP ASSAY Positive Cell lines (coculture with NALM6 cells),NFAT-GFP ASSAY Positive Cell lines (coculture with RAJI cells)
"090116-J01 (protein, Synthetic Immune Receptor (SIR)) MALPVTALLLPLALLLHAARPLEGKPIPNPLLGLDSTGSGEDLKNVFPPEVAVFEPSKAEIAHTQKATLVCLATGFYPDHVELSWWVNGKEVHSGVCTDPQPLKEQPALNDSRYCLSSRLRVSATFWQNPRNHFRCQVQFYGLSENDEWTQDRAKPVTQIVSAEAWGRADCGITSASYHQGVLSATILYEILLGKATLYAVLVSALVLMAMVKRKDSRGRAKRSGSGATNFSLLKQAGDVEENPGPTSMALPVTALLLPLALLLHAARPDIQMTQSPASLSASVGETVTIICRASVNIYSYLAWYQQKQGKSPQLLVYNAKILAEGVPSRFSGSGSGTQFSLKINSLQPEDFGSYYCQHHYGTFTFGSGTKLEIKRGGGGSGGGGSGGGGSQVQLKESGPGLVAPSQSLSITCTISGFSLTSYGVHWVRQPPGKGLEWLVVIWSDGSTTYNSALKSRLSISKDNSKSQVFLKMNSLQTDDTAIYYCASHYGSTLAFASWGHGTLVTVSAATREQKLISEEDGSGIQNPDPAVYQLRDSKSSDKSVCLFTDFDSQTNVSQSKDSDVYITDKCVLDMRSMDFKSNSAVAWSNKSDFACANAFNNSIIPEDTFFPSSDVPCDVKLVEKSFETDTNLNFQNLSVIGFRILLLKVAGFNLLMTLRLWSSRAKRSGSGVKQTLNFDLLKLAGDVESNPGPSRGHMTEYKPTVRLATRDDVPRAVRTLAAAFADYPATRHTVDPDRHIERVTELQELFLTRVGLDIGKVWVADDGAAVAVWTTPESVEAGAVFAEIGPRMAELSGSRLAAQQQMEGLLAPHRPKEPAWFLATVGVSPDHQGKGLGSAVVLPGVEAAERAGVPAFLETSAPRNLPFYERLGFTVTADVEVPEGPRTWCMTRKPGA",(+),–
"032216-Y07 (protein, Polynucleotide encoding a Synthetic Immune Receptor (SIR)) MALPVTALLLPLALLLHAARPDIVMTQSHKFMSTSVGDRVSVTCKASQNVGNNVAWYQQKPGQSPKVLIYSASYRYSGVPDRFTGSGSGTDFTLTISNVQSEDLAEYFCQQYNTYPFTFGSGTKLEIKLEGKPIPNPLLGLDSTGSGEDLKNVFPPEVAVFEPSKAEIAHTQKATLVCLATGFYPDHVELSWWVNGKEVHSGVCTDPQPLKEQPALNDSRYCLSSRLRVSATFWQNPRNHFRCQVQFYGLSENDEWTQDRAKPVTQIVSAEAWGRADCGITSASYHQGVLSATILYEILLGKATLYAVLVSALVLMAMVKRKDSRGRAKRSGSGATNFSLLKQAGDVEENPGPTSMDWIWRILFLVGAATGAHSFEEVQLEESGGGLVQPGGSMKLSCVASGFTFSNYWMNWVRQSPEKGLEWVAEIRFKSHNYATHFAESVKGRFTISRDDSKSSVYLQMNNLRAEDTGIYYCTRRIGNSDYDWWYFDVWGAGTSVTVSSASTREQKLISEEDGSGIQNPDPAVYQLRDSKSSDKSVCLFTDFDSQTNVSQSKDSDVYITDKCVLDMRSMDFKSNSAVAWSNKSDFACANAFNNSIIPEDTFFPSSDVPCDVKLVEKSFETDTNLNFQNLSVIGFRILLLKVAGFNLLMTLRLWSSRAKRSGSGVKQTLNFDLLKLAGDVESNPGPSRGHMTEYKPTVRLATRDDVPRAVRTLAAAFADYPATRHTVDPDRHIERVTELQELFLTRVGLDIGKVWVADDGAAVAVWTTPESVEAGAVFAEIGPRMAELSGSRLAAQQQMEGLLAPHRPKEPAWFLATVGVSPDHQGKGLGSAVVLPGVEAAERAGVPAFLETSAPRNLPFYERLGFTVTADVEVPEGPRTWCMTRKPGA",–,RAJI (+)
"090116-K02 (protein, Synthetic Immune Receptor (SIR)) MALPVTALLLPLALLLHAARPLEGKPIPNPLLGLDSTGSGEDLKNVFPPEVAVFEPSKAEIAHTQKATLVCLATGFYPDHVELSWWVNGKEVHSGVCTDPQPLKEQPALNDSRYCLSSRLRVSATFWQNPRNHFRCQVQFYGLSENDEWTQDRAKPVTQIVSAEAWGRADCGITSASYHQGVLSATILYEILLGKATLYAVLVSALVLMAMVKRKDSRGRAKRSGSGATNFSLLKQAGDVEENPGPTSMALPVTALLLPLALLLHAARPDIVMTQSHKFMSTSVGDRVSVTCKASQNVGNNVAWYQQKPGQSPKVLIYSASYRYSGVPDRFTGSGSGTDFTLTISNVQSEDLAEYFCQQYNTYPFTFGSGTKLEIKGGGGSGGGGSGGGGSEVQLEESGGGLVQPGGSMKLSCVASGFTFSNYWMNWVRQSPEKGLEWVAEIRFKSHNYATHFAESVKGRFTISRDDSKSSVYLQMNNLRAEDTGIYYCTRRIGNSDYDWWYFDVWGAGTSVTVSSASTREQKLISEEDGSGIQNPDPAVYQLRDSKSSDKSVCLFTDFDSQTNVSQSKDSDVYITDKCVLDMRSMDFKSNSAVAWSNKSDFACANAFNNSIIPEDTFFPSSDVPCDVKLVEKSFETDTNLNFQNLSVIGFRILLLKVAGFNLLMTLRLWSSRAKRSGSGVKQTLNFDLLKLAGDVESNPGPSRGHMTEYKPTVRLATRDDVPRAVRTLAAAFADYPATRHTVDPDRHIERVTELQELFLTRVGLDIGKVWVADDGAAVAVWTTPESVEAGAVFAEIGPRMAELSGSRLAAQQQMEGLLAPHRPKEPAWFLATVGVSPDHQGKGLGSAVVLPGVEAAERAGVPAFLETSAPRNLPFYERLGFTVTADVEVPEGPRTWCMTRKPGA",(2+),"RAJI (2+), NALM6"
"041416-N03 (protein, Polynucleotide encoding a Synthetic Immune Receptor (SIR)) MALPVTALLLPLALLLHAARPDIVMTQSHKFMSTSVGDRVSVTCKASQNVGNNVAWYQQKPGQSPKVLIYSASYRYSGVPDRFTGSGSGTDFTLTISNVQSEDLAEYFCQQYNTYPFTFGSGTKLEIKLEGKPIPNPLLGLDSTGSGEDLKNVFPPEVAVFEPSKAEIAHTQKATLVCLATGFYPDHVELSWWVNGKEVHSGVCTDPQPLKEQPALNDSRYCLSSRLRVSATFWQNPRNHFRCQVQFYGLSENDEWTQDRAKPVTQIVSAEAWGRADCGITSASYHQGVLSATILYEILLGKATLYAVLVSALVLMAMVKRKDSRGRAKRSGSGATNFSLLKQAGDVEENPGPTSMDWIWRILFLVGAATGAHSFEEVQLEESGGGLVQPGGSMKLSCVASGFTFSNYWMNWVRQSPEKGLEWVAEIRFKSHNYATHFAESVKGRFTISRDDSKSSVYLQMNNLRAEDTGIYYCTRRIGNSDYDWWYFDVWGAGTSVTVSSASTREQKLISEEDGSGTPFPSLAPPIMLLVDGKQQMVVVCLVLDVAPPGLDSPIWFSAGNGSALDAFTYGPSPATDGTWTNLAHLSLPSEELASWEPLVCHTGPGAEGHSRSTQPMHLSGEASTARTCPQEPLRGTPGGALWLGVLRLLLFKLLLFDLLLTCSCLCDPAGPLPSPATTTRLRALGSHRLHPATETGGREATSSPRPQPRDRRWGDTPPGRKPGSPVRAKRSGSGVKQTLNFDLLKLAGDVESNPGPSRGHMTEYKPTVRLATRDDVPRAVRTLAAAFADYPATRHTVDPDRHIERVTELQELFLTRVGLDIGKVWVADDGAAVAVWTTPESVEAGAVFAEIGPRMAELSGSRLAAQQQMEGLLAPHRPKEPAWFLATVGVSPDHQGKGLGSAVVLPGVEAAERAGVPAFLETSAPRNLPFYERLGFTVTADVEVPEGPRTWCMTRKPGA",–,RAJI (+/−)
"083016-B06 (protein, Polynucleotide encoding a Synthetic Immune Receptor (SIR)) MALPVTALLLPLALLLHAARPLEGKPIPNPLLGLDSTGSGEDLKNVFPPEVAVFEPSKAEIAHTQKATLVCLATGFYPDHVELSWWVNGKEVHSGVCTDPQPLKEQPALNDSRYCLSSRLRVSATFWQNPRNHFRCQVQFYGLSENDEWTQDRAKPVTQIVSAEAWGRADCGITSASYHQGVLSATILYEILLGKATLYAVLVSALVLMAMVKRKDSRGRAKRSGSGATNFSLLKQAGDVEENPGPTSMALPVTALLLPLALLLHAARPDIVMTQSHKFMSTSVGDRVSVTCKASQNVGNNVAWYQQKPGQSPKVLIYSASYRYSGVPDRFTGSGSGTDFTLTISNVQSEDLAEYFCQQYNTYPFTFGSGTKLEIKGGGGSGGGGSGGGGSEVQLEESGGGLVQPGGSMKLSCVASGFTFSNYWMNWVRQSPEKGLEWVAEIRFKSHNYATHFAESVKGRFTISRDDSKSSVYLQMNNLRAEDTGIYYCTRRIGNSDYDWWYFDVWGAGTSVTVSSASTREQKLISEEDLGSGTPFPSLAPPIMLLVDGKQQMVVVCLVLDVAPPGLDSPIWFSAGNGSALDAFTYGPSPATDGTWTNLAHLSLPSEELASWEPLVCHTGPGAEGHSRSTQPMHLSGEASTARTCPQEPLRGTPGGALWLGVLRLLLFKLLLFDLLLTCSCLCDPAGPLPSPATTTRLRALGSHRLHPATETGGREATSSPRPQPRDRRWGDTPPGRKPGSPVRAKRSGSGVKQTLNFDLLKLAGDVESNPGPSRSRGHMTEYKPTVRLATRDDVPRAVRTLAAAFADYPATRHTVDPDRHIERVTELQELFLTRVGLDIGKVWVADDGAAVAVWTTPESVEAGAVFAEIGPRMAELSGSRLAAQQQMEGLLAPHRPKEPAWFLATVGVSPDHQGKGLGSAVVLPGVEAAERAGVPAFLETSAPRNLPFYERLGFTVTADVEVPEGPRTWCMTRKPGA",–,RAJI (+)
"110116-J04 (protein, Synthetic Immune Receptor (SIR)) MALPVTALLLPLALLLHAARPLEQKLISEEDLGSGDRPDPAVYQLRDSKSSDKSVCLFTDFDSQTNVSQSKDSDVYITDKCVLDMRSMDFKSNSAVAWSNKSDFACANAFNNSIIPEDTFFPSPESSCDVKLVEKSFETDTNLNFQNLSVIGFRILLLKVAGFNLLMTLRLWSSSSRAKRSGSGVKQTLNFDLLKLAGDVESNPGPTSMALPVTALLLPLALLLHAARPDIQMTQSPASLSASVGETVTIICRASVNIYSYLAWYQQKQGKSPQLLVYNAKILAEGVPSRFSGSGSGTQFSLKINSLQPEDFGSYYCQHHYGTFTFGSGTKLEIKRGGGGSGGGGSGGGGSQVQLKESGPGLVAPSQSLSITCTISGFSLTSYGVHWVRQPPGKGLEWLVVIWSDGSTTYNSALKSRLSISKDNSKSQVFLKMNSLQTDDTAIYYCASHYGSTLAFASWGHGTLVTVSAATRGKPIPNPLLGLDSTGSGEDLKNVFPPEVAVFEPSEAEISHTQKATLVCLATGFYPDHVELSWWVNGKEVHSGVCTDPQPLKEQPALNDSRYCLSSRLRVSATFWQNPRNHFRCQVQFYGLSENDEWTQDRAKPVTQIVSAEAWGRADCGFTSESYQQGVLSATILYEILLGKATLYAVLVSALVLMAMVKRKDSRGRAKRSGSGATNFSLLKQAGDVEENPGPSRGHMTEYKPTVRLATRDDVPRAVRTLAAAFADYPATRHTVDPDRHIERVTELQELFLTRVGLDIGKVWVADDGAAVAVWTTPESVEAGAVFAEIGPRMAELSGSRLAAQQQMEGLLAPHRPKEPAWFLATVGVSPDHQGKGLGSAVVLPGVEAAERAGVPAFLETSAPRNLPFYERLGFTVTADVEVPEGPRTWCMTRKPGA",(2+),"RAJI (2+), NALM6"

# Reference: US12269859B2, “Synthetic immune receptors and methods of use thereof” (Angeles Therapeutics, Inc., priority 2016, dated 2025)
